Measurements: patent US20240352438A1, “MEANS AND METHODS FOR DETOXIFYING OCHRATOXIN A” (DSM Austria GmbH, priority 2021, published 2024)
Substitutions are numbered along the chain they refer to.

B1: 160 (protein)
chain: MTTRTRILTAFLSLLAANACAADAAPAAPHTVVLRAARMFDGASGKLVDHPQLTIVGNKIVRIAQGDKAEVPAGAEVVDLGDATLLPGFIDAHVHLSGQSSDNWYGDFFDNMMRFPAEQALYGAYYARITLEAGFTSVRDVGSTDWVALGLRNAIDAGKVPGPRMLVSNYAVGSTGGHADQDPIPPHKLPLAGPLQGVCNGPEECRAAVRYQIKYGANVIKFMPSGGVLSLSDPVDAPELSQDEMNAVIGESHAWGRKVAAHAHGDKAAKMAVAAGVDSIEHGSFIEDDTLRAMKAKNVYLVPTISAVAHVEEKIGTYPPVIAEKGRAAAAHLRQTFRHAVQIGVPIALGTDAGVGAHGSNAREFRYMVENGLTPAQALLAGTANAARLLGTFDRVGTLEAGKLADVVAVPGNPIADITVTERPLFVMKDGVVVRRDAVR
modifications: exemplary polypeptide
B2: 174 (protein)
chain: B1 chain with I184V
modifications: exemplary polypeptide
B3: 173 (protein)
chain: B1 chain with I184V, V308A
modifications: exemplary polypeptide
B4: 149 (protein)
chain: B1 chain with A179T, V308I, Y318F
modifications: exemplary polypeptide
B5: 168 (protein)
chain: B1 chain with A171P, V308A
modifications: exemplary polypeptide
B6: 133 (protein)
chain: B1 chain with A307V, V308I, Y318F
modifications: exemplary polypeptide
B7: 142 (protein)
chain: B1 chain with G142P, V308I, Y318F
modifications: exemplary polypeptide
B8: 134 (protein)
chain: B1 chain with N111D, V308I, Y318F
modifications: exemplary polypeptide
B9: 135 (protein)
chain: B1 chain with Y300C, V308I, Y318F, L389C
modifications: exemplary polypeptide
B10: 163 (protein)
chain: B1 chain with V308I, G354A
modifications: exemplary polypeptide
B11: 184 (protein)
chain: B1 chain with V308I, Y318F, A330M
modifications: exemplary polypeptide
B12: 186 (protein)
chain: B1 chain with V308I, Y318F, L333I
modifications: exemplary polypeptide
B13: 164 (protein)
chain: B1 chain with A171P, I184V, V308A, Y318F
modifications: exemplary polypeptide
B14: 166 (protein)
chain: B1 chain with A171P, I184V, V308I
modifications: exemplary polypeptide
B15: 165 (protein)
chain: B1 chain with A171P, I184V, Y318F
modifications: exemplary polypeptide
B16: 179 (protein)
chain: B1 chain with G354A
modifications: exemplary polypeptide
B17: 180 (protein)
chain: B1 chain with Y170E, V308I, Y318F
modifications: exemplary polypeptide
B18: 162 (protein)
chain: B1 chain with Y318F, G354A
modifications: exemplary polypeptide
B19: 169 (protein)
chain: B1 chain with A171P
modifications: exemplary polypeptide
B20: 175 (protein)
chain: B1 chain with I184V, V308A, Y318F, G354A
modifications: exemplary polypeptide
B21: 183 (protein)
chain: B1 chain with V308I, Y318F, A330L
modifications: exemplary polypeptide
B22: 181 (protein)
chain: B1 chain with Y170F, V308I, Y318F
modifications: exemplary polypeptide
B23: 177 (protein)
chain: B1 chain with I184V, V308I, G354A
modifications: exemplary polypeptide
B24: 167 (protein)
chain: B1 chain with A171P, I184V, V308I, Y318F, G354A
modifications: exemplary polypeptide
B25: 182 (protein)
chain: B1 chain with Y170R, V308I, Y318F
modifications: exemplary polypeptide
B26: 232 (protein)
chain: B1 chain with D233Q, V308I, Y318F
modifications: exemplary polypeptide

Experiment: OTA detoxification activity assay (specific activity, fluorescence reduction ex/em 390/450 nm)
Assay type: biochemical
Conditions: pH 6.0; SEQ ID NO: 1 = 100%
Summary of the method: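 Recombinant enzyme preparation with 200 ng/mL OTA in 100 mM sodium phosphate, at pH 6.0 and pH 7.5, 37° C. Degradation followed as the fall in fluorescence at ex/em 390/450 nm. Specific activity taken from the initial linear slope; one unit degrades 1 μmol OTA per min at a starting OTA of […].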

Going from B1 to B2, the “Specific OTA detoxification activities in % compared to the enzyme of SEQ ID NO: 1, pH 6.0” value falls from 78% to 45%.

First: B3
Second: B4
The “Specific OTA detoxification activities in % compared to the enzyme of SEQ ID NO: 1, pH 6.0” value of the first is lower: 27% for the first, 30% for the second.

Compared with B5, B6 is lower in “Specific OTA detoxification activities in % compared to the enzyme of SEQ ID NO: 1, pH 6.0” value: 41% for the first, 23% for the second.

Compared with B7, B8 is higher in “Specific OTA detoxification activities in % compared to the enzyme of SEQ ID NO: 1, pH 6.0” value: 34% for the first, 41% for the second.

Going from B9 to B10, the “Specific OTA detoxification activities in % compared to the enzyme of SEQ ID NO: 1, pH 6.0” value rises from 68% to 145%.

Going from B11 to B12, the “Specific OTA detoxification activities in % compared to the enzyme of SEQ ID NO: 1, pH 6.0” value rises from 103% to 142%.

First: B13
Second: B14
The “Specific OTA detoxification activities in % compared to the enzyme of SEQ ID NO: 1, pH 6.0” value of the first is lower: 29% for the first, 72% for the second.

Compared with B15, B16 is higher in “Specific OTA detoxification activities in % compared to the enzyme of SEQ ID NO: 1, pH 6.0” value: 46% for the first, 49% for the second.

Compared with B17, B18 is higher in “Specific OTA detoxification activities in % compared to the enzyme of SEQ ID NO: 1, pH 6.0” value: 91% for the first, 191% for the second.

First: B19
Second: B20
The “Specific OTA detoxification activities in % compared to the enzyme of SEQ ID NO: 1, pH 6.0” value of the first is lower: 50% for the first, 121% for the second.

Going from B21 to B22, the “Specific OTA detoxification activities in % compared to the enzyme of SEQ ID NO: 1, pH 6.0” value rises from 58% to 138%.

Going from B23 to B24, the “Specific OTA detoxification activities in % compared to the enzyme of SEQ ID NO: 1, pH 6.0” value falls from 94% to 54%.

With B25 the “Specific OTA detoxification activities in % compared to the enzyme of SEQ ID NO: 1, pH 6.0” value was 98%.

Same assay, conditions: pH 7.5; SEQ ID NO: 1 = 100%

First: B1
Second: B2
The “Specific OTA detoxification activities in % compared to the enzyme of SEQ ID NO: 1, pH 7.5” value of the first is higher: 84% for the first, 59% for the second.

Compared with B3, B4 is lower in “Specific OTA detoxification activities in % compared to the enzyme of SEQ ID NO: 1, pH 7.5” value: 53% for the first, 13% for the second.

Compared with B5, B6 is lower in “Specific OTA detoxification activities in % compared to the enzyme of SEQ ID NO: 1, pH 7.5” value: 62% for the first, 27% for the second.

Compared with B7, B8 is higher in “Specific OTA detoxification activities in % compared to the enzyme of SEQ ID NO: 1, pH 7.5” value: 8% for the first, 52% for the second.

Compared with B9, B10 is higher in “Specific OTA detoxification activities in % compared to the enzyme of SEQ ID NO: 1, pH 7.5” value: 70% for the first, 112% for the second.

First: B11
Second: B12
The “Specific OTA detoxification activities in % compared to the enzyme of SEQ ID NO: 1, pH 7.5” value of the first is lower: 76% for the first, 115% for the second.

First: B13
Second: B14
The “Specific OTA detoxification activities in % compared to the enzyme of SEQ ID NO: 1, pH 7.5” value of the first is lower: 63% for the first, 68% for the second.

First: B15
Second: B16
The “Specific OTA detoxification activities in % compared to the enzyme of SEQ ID NO: 1, pH 7.5” value of the first is higher: 71% for the first, 66% for the second.

Compared with B17, B18 is higher in “Specific OTA detoxification activities in % compared to the enzyme of SEQ ID NO: 1, pH 7.5” value: 83% for the first, 124% for the second.

First: B19
Second: B20
The “Specific OTA detoxification activities in % compared to the enzyme of SEQ ID NO: 1, pH 7.5” value of the first is lower: 45% for the first, 108% for the second.

First: B21
Second: B22
The “Specific OTA detoxification activities in % compared to the enzyme of SEQ ID NO: 1, pH 7.5” value of the first is lower: 55% for the first, 112% for the second.

Going from B23 to B24, the “Specific OTA detoxification activities in % compared to the enzyme of SEQ ID NO: 1, pH 7.5” value falls from 90% to 73%.

For B25, the “Specific OTA detoxification activities in % compared to the enzyme of SEQ ID NO: 1, pH 7.5” value was 91%.

Experiment: Enzymatic activity comparison: activity remaining after 65° C. for 10 min at pH 6.0, relative to SEQ ID NO: 1
Assay type: physicochemical
Conditions: not given
Description: To compare the temperature behavior and thermostability of selected enzymes to one another, enzyme was incubated at 65° C. for 10 min at pH 6.0. The enzymatic activity remaining after incubation was compared to the remaining activity of the enzyme of SEQ ID NO: 1 after incubation, the latter being set to 100%, see Table 16.

First: B1
Second: B2
The “Enzymatic activity remaining after incubation, compared to SEQ ID NO: 1 (set to 100%)” value of the first is lower: 30% for the first, 54% for the second.

First: B3
Second: B26
The “Enzymatic activity remaining after incubation, compared to SEQ ID NO: 1 (set to 100%)” value of the first is higher: 53% for the first, 25% for the second.

Compared with B5, B10 is lower in “Enzymatic activity remaining after incubation, compared to SEQ ID NO: 1 (set to 100%)” value: 48% for the first, 17% for the second.

First: B11
Second: B12
The “Enzymatic activity remaining after incubation, compared to SEQ ID NO: 1 (set to 100%)” value of the first is higher: 46% for the first, 42% for the second.

Compared with B13, B14 is higher in “Enzymatic activity remaining after incubation, compared to SEQ ID NO: 1 (set to 100%)” value: 15% for the first, 37% for the second.

Going from B15 to B16, the “Enzymatic activity remaining after incubation, compared to SEQ ID NO: 1 (set to 100%)” value falls from 33% to 17%.

Compared with B17, B18 is lower in “Enzymatic activity remaining after incubation, compared to SEQ ID NO: 1 (set to 100%)” value: 28% for the first, 7% for the second.

Going from B19 to B20, the “Enzymatic activity remaining after incubation, compared to SEQ ID NO: 1 (set to 100%)” value falls from 30% to 13%.

First: B21
Second: B22
The “Enzymatic activity remaining after incubation, compared to SEQ ID NO: 1 (set to 100%)” value of the first is higher: 75% for the first, 47% for the second.

First: B23
Second: B24
The “Enzymatic activity remaining after incubation, compared to SEQ ID NO: 1 (set to 100%)” value of the first is lower: 20% for the first, 26% for the second.

With B25 the “Enzymatic activity remaining after incubation, compared to SEQ ID NO: 1 (set to 100%)” value was 38%.
